Results as given in patent US20230212320A1.

What was measured:
[1] = target: Fc2 of PTC039 (IgG1 Fc chain with L351G, T366S, L368A, Y407V) (Homo sapiens (Human)) [IgG part: P0DOX5]; test: SE-HPLC, PTC040 co-expression
[2] = target: Fc2 of PTC039 (IgG1 Fc chain with L351G, T366S, L368A, Y407V) (Homo sapiens (Human)) [IgG part: P0DOX5]; test: SE-HPLC, PTC074 co-expression

In the case of “Fc2 of PTC039 (IgG1 Fc chain with L351G, T366S, L368A, Y407V) (from UniProt P0DOX5 218-449)”, the Fc-2-2 homo-dimer (%) [1] was 1.5% and the Fc-2-2 homo-dimer (%) [2] was 0.96%.
